By IC50 is commonly meant the point on the concentration scale where inhibition reaches its midpoint.

This assay deals with recombinant HCMV pUL50 (His-tagged) (human cytomegalovirus (HCMV)) (UniProt P16791). The experiment in a line: ELISA; competition: pUL53 (1 µg/mL) coated on Immulon plates; peptide in serial dilutions from 10 µM together with His-tagged pUL50 (0.78 µg/mL) for 2.5 h; detection with anti-His-HRP; 0.1 M phosphate buffer pH 7.2, 0.1% BSA, 0.01% Tween 20.

Regarding “NLS-CPP (acetylated; pUL53 NLS 18-27 joined to HIV-1 Tat 47-59) (peptide)”, the IC50 is over 10 µM.

These data come from PMC9505826, “A Peptide Inhibitor of the Human Cytomegalovirus Core Nuclear Egress Complex” (Pharmaceuticals, 2022).
